Source: IntAct's records for PubMed 29039417

B1: Protein PTHB1 (Homo sapiens), Q3SYG4 (parent)
chain: MSLFKARDWWSTILGDKEEFDQGCLCLANVDNSGNGQDKIIVGSFMGYLRIFSPHPAKTGDGAQAEDLLLEVDLRDPVLQVEVGKFVSGTEMLHLAVLHSRKLCVYSVSGTLGNVEHGNQCQMKLMYEHNLQRTACNMTYGSFGGVKGRDLICIQSMDGMLMVFEQESYAFGRFLPGFLLPGPLAYSSRTDSFLTVSSCQQVESYKYQVLAFATDADKRQETEQQKLGSGKRLVVDWTLNIGEQALDICIVSFNQSASSVFVLGERNFFCLKDNGQIRFMKKLDWSPSCFLPYCSVSEGTINTLIGNHNNMLHIYQDVTLKWATQLPHIPVAVRVGCLHDLKGVIVTLSDDGHLQCSYLGTDPSLFQAPNVQSRELNYDELDVEMKELQKIIKDVNKSQGVWPMTEREDDLNVSVVVSPNFDSVSQATDVEVGTDLVPSVTVKVTLQNRVILQKAKLSVYVQPPLELTCDQFTFEFMTPDLTRTVSFSVYLKRSYTPSELEGNAVVSYSRPTDRNPDGIPRVIQCKFRLPLKLICLPGQPSKTASHKITIDTNKSPVSLLSLFPGFASQSDDDQVNVMGFHFLGGARITVLASKTSQRYRIQSEQFEDLWLITNELILRLQEYFEKQGVKDFACSFSGSIPLQEYFELIDHHFELRINGEKLEELLSERAVQFRAIQRRLLARFKDKTPAPLQHLDTLLDGTYKQVIALADAVEENQGNLFQSFTRLKSATHLVILLIALWQKLSADQVAILEAAFLPLQEDTQELGWEETVDAAISHLLKTCLSKSSKEQALNLNSQLNIPKDTSQLKKHITLLCDRLSKGGRLCLSTDAAAPQTMVMPGGCTTIPESDLEERSVEQDSTELFTNHRHLTAETPRPEVSPLQGVSE
partner: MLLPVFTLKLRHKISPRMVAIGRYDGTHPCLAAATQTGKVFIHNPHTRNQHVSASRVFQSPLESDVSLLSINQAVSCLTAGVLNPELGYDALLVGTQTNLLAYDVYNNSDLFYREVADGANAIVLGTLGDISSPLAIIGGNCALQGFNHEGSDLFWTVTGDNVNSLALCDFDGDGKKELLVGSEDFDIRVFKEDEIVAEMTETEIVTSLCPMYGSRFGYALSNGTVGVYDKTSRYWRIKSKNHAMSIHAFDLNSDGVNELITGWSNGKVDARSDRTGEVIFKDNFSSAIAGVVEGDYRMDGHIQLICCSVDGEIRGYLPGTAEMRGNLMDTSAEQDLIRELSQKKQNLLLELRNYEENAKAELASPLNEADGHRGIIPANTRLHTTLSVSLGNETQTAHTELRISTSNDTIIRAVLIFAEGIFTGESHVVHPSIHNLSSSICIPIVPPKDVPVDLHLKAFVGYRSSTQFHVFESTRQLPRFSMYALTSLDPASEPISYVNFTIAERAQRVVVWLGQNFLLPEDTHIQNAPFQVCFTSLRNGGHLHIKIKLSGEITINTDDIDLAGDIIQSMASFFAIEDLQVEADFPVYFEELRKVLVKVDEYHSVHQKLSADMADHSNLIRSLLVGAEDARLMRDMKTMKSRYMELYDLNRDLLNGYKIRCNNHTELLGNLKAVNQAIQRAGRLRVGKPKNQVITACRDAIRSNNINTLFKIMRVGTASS

Variants of: B1
Conditions: with bbs2_human BBS2, Q9BXC9

Variant | effect of a mutation on the interaction
Q722A | with no effect
Q722E | with no effect
Q722K | with no effect
Q722T | disrupting interaction strength
I676A | with no effect
I676E | with no effect
I676K | with no effect
F724A | with no effect
A690F | disrupting interaction strength
A690K | with no effect
A690V | disrupting interaction strength
A690E | disrupting interaction strength
R669E | with no effect
R669K | with no effect
R669A | with no effect
A670E | with no effect
A670T | disrupting interaction strength
A670K | with no effect
Y703A | with no effect
Y703K | with no effect
Y703E | with no effect
F673A | with no effect
F673E | with no effect
F673K | disrupting interaction strength
E714K | with no effect

Variant | effect of a mutation on the interaction
E714A | with no effect
D686E | with no effect
D686K | with no effect
D686A | with no effect
R683K | with no effect
R683A | with no effect
R683E | with no effect
R674K | with no effect
R674P | disrupting interaction strength
R674E | with no effect
R674A | with no effect
D711E | with no effect
D711A | with no effect
D711K | with no effect
A710E | with no effect
A710K | with no effect
Q717A | with no effect
Q717K | with no effect
Q717E | with no effect
R678K | with no effect
R678A | with no effect
R678E | with no effect
E715A | with no effect
E715K | with no effect
K704E | with no effect

Variant | effect of a mutation on the interaction
K704A | with no effect
D696E | with no effect
D696A | with no effect
D696K | with no effect
K685E | with no effect
K685A | with no effect
Q677Y | disrupting interaction strength
Q677E | with no effect
Q677A | with no effect
Q677K | with no effect
L695M | disrupting interaction strength
L695K | with no effect
L695E | with no effect
L695A | with no effect
T697C | disrupting interaction strength
T697K | with no effect
T697A | with no effect
T697E | with no effect
L699E | with no effect
L699K | disrupting interaction strength
L699A | with no effect
V713E | with no effect
V713K | with no effect
V713A | with no effect
A712E | with no effect

Variant | effect of a mutation on the interaction
A712K | with no effect
L709A | with no effect
L709K | with no effect
L709E | with no effect
A708K | with no effect
A708E | with no effect
L698A | with no effect
L698K | with no effect
L698E | with no effect
N716K | with no effect
N716E | with no effect
N716A | disrupting interaction strength
F721E | with no effect
F721A | with no effect
F721K | with no effect
P689K | with no effect
P689A | with no effect
P689S | disrupting interaction strength
P689E | with no effect
V671K | with no effect
V671E | with no effect
V671A | with no effect
V706K | with no effect
V706A | with no effect
V706E | with no effect

Variant | effect of a mutation on the interaction
Q693A | with no effect
Q693K | with no effect
Q693E | with no effect
L720E | with no effect
L720K | with no effect
L720A | with no effect
G718A | with no effect
G718K | with no effect
G718D | disrupting interaction strength
G718E | with no effect
P691L | disrupting interaction strength
P691E | with no effect
P691K | with no effect
P691S | disrupting interaction strength
P691A | with no effect
D700A | with no effect
D700K | with no effect
D700E | with no effect
L681A | with no effect
L681K | with no effect
L681E | with no effect
Q672A | with no effect
Q672K | with no effect
Q672E | with no effect
L692E | with no effect

Variant | effect of a mutation on the interaction
L692A | with no effect
L692K | with no effect
L680E | with no effect
L680K | with no effect
L680A | with no effect
G701A | with no effect
G701E | disrupting interaction strength
G701K | with no effect
T702A | with no effect
T702C | disrupting interaction strength
T702E | with no effect
T702K | with no effect
T688K | with no effect
T688A | disrupting interaction strength
T688E | disrupting interaction strength
K687E | with no effect
K687A | with no effect
N719E | with no effect
N719A | with no effect
N719K | with no effect
I707E | with no effect
I707K | with no effect
I707A | with no effect
H694K | with no effect
H694Y | disrupting interaction strength

Variant | effect of a mutation on the interaction
H694S | disrupting interaction strength
H694A | with no effect
H694E | with no effect
A675E | with no effect
A675K | with no effect
A675H | disrupting interaction strength
E668K | with no effect
R679E | with no effect
R679A | with no effect
R679G | disrupting interaction strength
R679K | with no effect
Q705M | disrupting interaction strength
Q705K | with no effect
Q705A | with no effect
Q705E | with no effect
F684K | with no effect
F684E | with no effect
F684A | with no effect
S723P | disrupting interaction strength
S723E | with no effect
S723A | with no effect
S723K | with no effect
A682K | with no effect
A682E | with no effect
